This is an account of results in US20190233495A1 (Sanofi, published 2019).

Sequences and labels used below:
T1: RXFP1 receptor (UniProt Q9HBX9 1-757, limits assumed)
T1 sequence (looked up): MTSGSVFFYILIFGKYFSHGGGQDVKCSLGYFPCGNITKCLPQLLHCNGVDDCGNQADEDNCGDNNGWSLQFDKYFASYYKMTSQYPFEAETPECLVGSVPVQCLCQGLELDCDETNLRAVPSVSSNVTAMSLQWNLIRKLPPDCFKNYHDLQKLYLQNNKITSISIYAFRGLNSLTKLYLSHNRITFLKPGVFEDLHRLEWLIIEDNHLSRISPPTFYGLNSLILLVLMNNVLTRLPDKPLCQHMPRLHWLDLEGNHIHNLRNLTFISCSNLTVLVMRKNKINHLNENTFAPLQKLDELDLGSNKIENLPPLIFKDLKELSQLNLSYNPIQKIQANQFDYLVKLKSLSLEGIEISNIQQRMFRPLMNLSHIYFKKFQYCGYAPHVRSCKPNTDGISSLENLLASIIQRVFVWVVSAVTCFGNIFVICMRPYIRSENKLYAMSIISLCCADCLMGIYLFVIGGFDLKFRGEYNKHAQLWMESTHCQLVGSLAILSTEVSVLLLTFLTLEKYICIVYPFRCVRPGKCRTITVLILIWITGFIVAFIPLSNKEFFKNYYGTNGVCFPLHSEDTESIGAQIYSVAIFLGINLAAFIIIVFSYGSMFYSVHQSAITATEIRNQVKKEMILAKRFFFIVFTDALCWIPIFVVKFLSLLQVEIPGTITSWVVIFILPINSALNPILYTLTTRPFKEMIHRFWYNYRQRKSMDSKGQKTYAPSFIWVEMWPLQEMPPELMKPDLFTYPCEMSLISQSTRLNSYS

B1: SEQ ID NO: 15 (peptide)
peptide: Ac-LEGREKVRAQI[Aib][Aib]EG[Nle]ST[1Nal]SKRKK-NH2
SMILES: CCCC[C@H](NC(=O)CNC(=O)[C@H](CCC(=O)O)NC(=O)C(C)(C)NC(=O)C(C)(C)NC(=O)[C@@H](NC(=O)[C@H](CCC(N)=O)NC(=O)[C@H](C)NC(=O)[C@H](CCCNC(=N)N)NC(=O)[C@@H](NC(=O)[C@H](CCCCN)NC(=O)[C@H](CCC(=O)O)NC(=O)[C@H](CCCNC(=N)N)NC(=O)CNC(=O)[C@H](CCC(=O)O)NC(=O)[C@H](CC(C)C)NC(C)=O)C(C)C)[C@@H](C)CC)C(=O)N[C@@H](CO)C(=O)N[C@H](C(=O)N[C@@H](Cc1cccc2ccccc12)C(=O)N[C@@H](CO)C(=O)N[C@@H](CCCCN)C(=O)N[C@@H](CCCNC(=N)N)C(=O)N[C@@H](CCCCN)C(=O)N[C@@H](CCCCN)C(N)=O)[C@@H](C)O
B2: SEQ ID NO: 18 (peptide)
peptide: Ac-LEGREKVRAAI[Aib][Aib]EGMSKWS[Aib]RK-NH2
SMILES: CC[C@H](C)[C@H](NC(=O)[C@H](C)NC(=O)[C@H](C)NC(=O)[C@H](CCCNC(=N)N)NC(=O)[C@@H](NC(=O)[C@H](CCCCN)NC(=O)[C@H](CCC(=O)O)NC(=O)[C@H](CCCNC(=N)N)NC(=O)CNC(=O)[C@H](CCC(=O)O)NC(=O)[C@H](CC(C)C)NC(C)=O)C(C)C)C(=O)NC(C)(C)C(=O)NC(C)(C)C(=O)N[C@@H](CCC(=O)O)C(=O)NCC(=O)N[C@@H](CCSC)C(=O)N[C@@H](CO)C(=O)N[C@@H](CCCCN)C(=O)N[C@@H](Cc1c[nH]c2ccccc12)C(=O)N[C@@H](CO)C(=O)NC(C)(C)C(=O)N[C@@H](CCCNC(=N)N)C(=O)N[C@@H](CCCCN)C(N)=O
B3: SEQ ID NO: 13 (peptide)
peptide: Ac-LEGREKVRAQI[Aib][Aib]EG[Nle]STWSKRKK-NH2
SMILES: CCCC[C@H](NC(=O)CNC(=O)[C@H](CCC(=O)O)NC(=O)C(C)(C)NC(=O)C(C)(C)NC(=O)[C@@H](NC(=O)[C@H](CCC(N)=O)NC(=O)[C@H](C)NC(=O)[C@H](CCCNC(=N)N)NC(=O)[C@@H](NC(=O)[C@H](CCCCN)NC(=O)[C@H](CCC(=O)O)NC(=O)[C@H](CCCNC(=N)N)NC(=O)CNC(=O)[C@H](CCC(=O)O)NC(=O)[C@H](CC(C)C)NC(C)=O)C(C)C)[C@@H](C)CC)C(=O)N[C@@H](CO)C(=O)N[C@H](C(=O)N[C@@H](Cc1c[nH]c2ccccc12)C(=O)N[C@@H](CO)C(=O)N[C@@H](CCCCN)C(=O)N[C@@H](CCCNC(=N)N)C(=O)N[C@@H](CCCCN)C(=O)N[C@@H](CCCCN)C(N)=O)[C@@H](C)O
B4: SEQ ID NO: 14 (peptide)
peptide: Ac-LEGREKVRAQI[Aib][Aib]EG[Nle]SK[1Nal]SKRKK-NH2
SMILES: CCCC[C@H](NC(=O)CNC(=O)[C@H](CCC(=O)O)NC(=O)C(C)(C)NC(=O)C(C)(C)NC(=O)[C@@H](NC(=O)[C@H](CCC(N)=O)NC(=O)[C@H](C)NC(=O)[C@H](CCCNC(=N)N)NC(=O)[C@@H](NC(=O)[C@H](CCCCN)NC(=O)[C@H](CCC(=O)O)NC(=O)[C@H](CCCNC(=N)N)NC(=O)CNC(=O)[C@H](CCC(=O)O)NC(=O)[C@H](CC(C)C)NC(C)=O)C(C)C)[C@@H](C)CC)C(=O)N[C@@H](CO)C(=O)N[C@@H](CCCCN)C(=O)N[C@@H](Cc1cccc2ccccc12)C(=O)N[C@@H](CO)C(=O)N[C@@H](CCCCN)C(=O)N[C@@H](CCCNC(=N)N)C(=O)N[C@@H](CCCCN)C(=O)N[C@@H](CCCCN)C(N)=O
B5: SEQ ID NO: 17 (peptide)
peptide: Ac-LEGREKVRAAI[Aib][Aib]EG[Nle]STWS[Aib]RKK-NH2
SMILES: CCCC[C@H](NC(=O)CNC(=O)[C@H](CCC(=O)O)NC(=O)C(C)(C)NC(=O)C(C)(C)NC(=O)[C@@H](NC(=O)[C@H](C)NC(=O)[C@H](C)NC(=O)[C@H](CCCNC(=N)N)NC(=O)[C@@H](NC(=O)[C@H](CCCCN)NC(=O)[C@H](CCC(=O)O)NC(=O)[C@H](CCCNC(=N)N)NC(=O)CNC(=O)[C@H](CCC(=O)O)NC(=O)[C@H](CC(C)C)NC(C)=O)C(C)C)[C@@H](C)CC)C(=O)N[C@@H](CO)C(=O)N[C@H](C(=O)N[C@@H](Cc1c[nH]c2ccccc12)C(=O)N[C@@H](CO)C(=O)NC(C)(C)C(=O)N[C@@H](CCCNC(=N)N)C(=O)N[C@@H](CCCCN)C(=O)N[C@@H](CCCCN)C(N)=O)[C@@H](C)O
B6: SEQ ID NO: 19 (peptide)
peptide: Ac-LEGREKVRA[Aib]I[Aib][Aib]EG[Nle]STWSKRKK-NH2
SMILES: CCCC[C@H](NC(=O)CNC(=O)[C@H](CCC(=O)O)NC(=O)C(C)(C)NC(=O)C(C)(C)NC(=O)[C@@H](NC(=O)C(C)(C)NC(=O)[C@H](C)NC(=O)[C@H](CCCNC(=N)N)NC(=O)[C@@H](NC(=O)[C@H](CCCCN)NC(=O)[C@H](CCC(=O)O)NC(=O)[C@H](CCCNC(=N)N)NC(=O)CNC(=O)[C@H](CCC(=O)O)NC(=O)[C@H](CC(C)C)NC(C)=O)C(C)C)[C@@H](C)CC)C(=O)N[C@@H](CO)C(=O)N[C@H](C(=O)N[C@@H](Cc1c[nH]c2ccccc12)C(=O)N[C@@H](CO)C(=O)N[C@@H](CCCCN)C(=O)N[C@@H](CCCNC(=N)N)C(=O)N[C@@H](CCCCN)C(=O)N[C@@H](CCCCN)C(N)=O)[C@@H](C)O
B7: SEQ ID NO: 2 (peptide)
peptide: Ac-LEGREKVRAQI[Aib][Aib]EGMSKWSKRKK-NH2
SMILES: CC[C@H](C)[C@H](NC(=O)[C@H](CCC(N)=O)NC(=O)[C@H](C)NC(=O)[C@H](CCCNC(=N)N)NC(=O)[C@@H](NC(=O)[C@H](CCCCN)NC(=O)[C@H](CCC(=O)O)NC(=O)[C@H](CCCNC(=N)N)NC(=O)CNC(=O)[C@H](CCC(=O)O)NC(=O)[C@H](CC(C)C)NC(C)=O)C(C)C)C(=O)NC(C)(C)C(=O)NC(C)(C)C(=O)N[C@@H](CCC(=O)O)C(=O)NCC(=O)N[C@@H](CCSC)C(=O)N[C@@H](CO)C(=O)N[C@@H](CCCCN)C(=O)N[C@@H](Cc1c[nH]c2ccccc12)C(=O)N[C@@H](CO)C(=O)N[C@@H](CCCCN)C(=O)N[C@@H](CCCNC(=N)N)C(=O)N[C@@H](CCCCN)C(=O)N[C@@H](CCCCN)C(N)=O
B8: SEQ ID NO: 12 (peptide)
peptide: H-[Aib]EGREKVRAQI[Aib][Aib]EGMSKWSKRKK-NH2
SMILES: CC[C@H](C)[C@H](NC(=O)[C@H](CCC(N)=O)NC(=O)[C@H](C)NC(=O)[C@H](CCCNC(=N)N)NC(=O)[C@@H](NC(=O)[C@H](CCCCN)NC(=O)[C@H](CCC(=O)O)NC(=O)[C@H](CCCNC(=N)N)NC(=O)CNC(=O)[C@H](CCC(=O)O)NC(=O)C(C)(C)N)C(C)C)C(=O)NC(C)(C)C(=O)NC(C)(C)C(=O)N[C@@H](CCC(=O)O)C(=O)NCC(=O)N[C@@H](CCSC)C(=O)N[C@@H](CO)C(=O)N[C@@H](CCCCN)C(=O)N[C@@H](Cc1c[nH]c2ccccc12)C(=O)N[C@@H](CO)C(=O)N[C@@H](CCCCN)C(=O)N[C@@H](CCCNC(=N)N)C(=O)N[C@@H](CCCCN)C(=O)N[C@@H](CCCCN)C(N)=O
B9: SEQ ID NO: 16 (peptide)
peptide: Ac-LEGREKVRAAI[Aib][Aib]EGMSTWSKRKK-NH2
SMILES: CC[C@H](C)[C@H](NC(=O)[C@H](C)NC(=O)[C@H](C)NC(=O)[C@H](CCCNC(=N)N)NC(=O)[C@@H](NC(=O)[C@H](CCCCN)NC(=O)[C@H](CCC(=O)O)NC(=O)[C@H](CCCNC(=N)N)NC(=O)CNC(=O)[C@H](CCC(=O)O)NC(=O)[C@H](CC(C)C)NC(C)=O)C(C)C)C(=O)NC(C)(C)C(=O)NC(C)(C)C(=O)N[C@@H](CCC(=O)O)C(=O)NCC(=O)N[C@@H](CCSC)C(=O)N[C@@H](CO)C(=O)N[C@H](C(=O)N[C@@H](Cc1c[nH]c2ccccc12)C(=O)N[C@@H](CO)C(=O)N[C@@H](CCCCN)C(=O)N[C@@H](CCCNC(=N)N)C(=O)N[C@@H](CCCCN)C(=O)N[C@@H](CCCCN)C(N)=O)[C@@H](C)O

Non-standard residues stand in square brackets, D forms with d. 1Nal = N[C@@H](Cc1cccc2ccccc12)C(=O)O; Nle = CCCC[C@H](N)C(=O)O; Aib = CC(C)(N)C(=O)O

For this experiment, the target named is T1, RXFP1 receptor. As to the kind of experiment: cell-based or functional assay.
With B1, the “cAMP assay in OVCAR 5 cells EC50” value stood at 24.4 nM and the “cAMP assay in OVCAR 5 cells Emax” value was 104%.

For B2, the “cAMP assay in OVCAR 5 cells EC50” value is 52.1 nM and the “cAMP assay in OVCAR 5 cells Emax” value stood at 104%.

Turning to B3, the “cAMP assay in OVCAR 5 cells EC50” value was 19.2 nM and the “cAMP assay in OVCAR 5 cells Emax” value turned out to be 97%.

With B4, the “cAMP assay in OVCAR 5 cells EC50” value came to 32.8 nM and the “cAMP assay in OVCAR 5 cells Emax” value stood at 106%.

In the case of B5, the “cAMP assay in OVCAR 5 cells EC50” value came to 11.6 nM and the “cAMP assay in OVCAR 5 cells Emax” value is 90%.

B6: the “cAMP assay in OVCAR 5 cells EC50” value is 18.2 nM and the “cAMP assay in OVCAR 5 cells Emax” value was 97%.

Turning to B7, the “cAMP assay in OVCAR 5 cells EC50” value came to 14.4 nM and the “cAMP assay in OVCAR 5 cells Emax” value was determined as 99%.

With B8, the “cAMP assay in OVCAR 5 cells EC50” value amounted to 28.2 nM and the “cAMP assay in OVCAR 5 cells Emax” value is 99%.

Take B9: the “cAMP assay in OVCAR 5 cells EC50” value is 4.6 nM and the “cAMP assay in OVCAR 5 cells Emax” value turned out to be 101%.
